The text below walks through data of US20240360242A1 (KISOJI BIOTECHNOLOGY, published 2024).

Positions count from the first letter of the chain named.

The labels stand for the following.
T1: recombinant human TROP2 extracellular domain (aa 1-274) comprising His tag (human, UniProt P09758 27-274)
T1 construct: Used here for all assays on recombinant human TROP2 (ELISA, immunoblot, SPR, crystal), although only some of them name the catalogue number; also called human recombinant TROP2; recombinant human TROP2 protein; not shown: His tag
T1 sequence: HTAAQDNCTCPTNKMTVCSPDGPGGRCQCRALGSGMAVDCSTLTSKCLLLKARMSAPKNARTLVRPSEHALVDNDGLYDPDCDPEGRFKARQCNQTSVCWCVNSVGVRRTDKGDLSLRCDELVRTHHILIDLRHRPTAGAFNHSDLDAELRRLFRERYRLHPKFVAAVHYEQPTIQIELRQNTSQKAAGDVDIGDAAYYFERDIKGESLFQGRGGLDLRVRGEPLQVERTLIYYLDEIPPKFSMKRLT

B1: KD030 (antibody, V domains shown)
VH: QVQLQESGGGLVQPGGSLRLSCAASGFPFSSADMSWVRQAPGKGLEWVSYINADGSKTYYADTVKGRFTISRDNSKNTLYLQMNSLRAEDTAVYRCARAKLTDTHYVEDYWGQGTMVTVSS
notes: KD002 humanized variant
B2: KD029 (antibody, V domains shown)
VH: B1 VH with L45P, A61P, S85N, V93L
notes: KD002 humanized variant
B3: KD026 (antibody, V domains shown)
VH: B1 VH with L11M, P14V, L45P, A61P, S75A, R87K, A88P, M116Q
notes: KD002 humanized variant
B4: KD027 (antibody, V domains shown)
VH: B1 VH with L11M, P14V, L45P, A61P, T63S, S75A, R87K, A88P, M116Q
notes: KD002 humanized variant
B5: KD022 (antibody, V domains shown)
VH: B1 VH with Q1E, Q5V, L45P, S75A, R95Y, M116Q
notes: KD002 humanized variant
B6: KD037 (antibody, V domains shown)
VH: B1 VH with S85N
notes: KD002 humanized variant
B7: KD039 (antibody, V domains shown)
VH: B1 VH with L11M, M116Q
notes: KD002 humanized variant
B8: KD040 (antibody, V domains shown)
VH: B1 VH with G44Q, L45R
notes: KD002 humanized variant
B9: KD033 (antibody, V domains shown)
VH: B1 VH with Y50V
notes: KD002 humanized variant
B10: KD034 (antibody, V domains shown)
VH: B1 VH with R95Y
notes: KD002 humanized variant
B11: KD023 (antibody, V domains shown)
VH: B1 VH with Q5V, L45P, A61P, S75A, R95Y, M116Q
notes: KD002 humanized variant
B12: KD032 (antibody, V domains shown)
VH: B1 VH with Q5L
notes: KD002 humanized variant
B13: KD036 (antibody, V domains shown)
VH: B1 VH with A61P
notes: KD002 humanized variant
B14: KD024 (antibody, V domains shown)
VH: B1 VH with Q5V, L45P, A61P, S75A, M116Q
notes: KD002 humanized variant
B15: KD041 (antibody, V domains shown)
VH: B1 VH with D54E
notes: KD002 humanized variant
B16: KD025 (antibody, V domains shown)
VH: B1 VH with Q5V, P14V, L45P, A61P, S75A, R87K, A88P, M116Q
notes: KD002 humanized variant
B17: KD028 (antibody, V domains shown)
VH: B1 VH with Q1E, Q5L, Y50V, R95Y
notes: KD002 humanized variant
B18: KD035 (antibody, V domains shown)
VH: B1 VH with L45P
notes: KD002 humanized variant
B19: KD042 (antibody, V domains shown)
VH: B1 VH with D54N
notes: KD002 humanized variant
B20: KD038 (antibody, V domains shown)
VH: B1 VH with V93L
notes: KD002 humanized variant
B21: KD021 (antibody, V domains shown)
VH: B1 VH with Q1E, Q5V, Y59S, S75A, R95Y, M116L
notes: KD002 humanized variant
B22: KD031 (antibody, V domains shown)
VH: B1 VH with Q1E
notes: KD002 humanized variant
B23: KD054 (antibody, V domains shown)
VH: QVQLQESGGGLIQPGGSLRLSCAASGFTFSGSDMSWVRQAPGKGLEWVSYITSGGTTYYADTVKGRFTISRDNSKNTLYLQMNSLRAEDTAVYRCAKSRLTDSHYVEDAWGQGTLVTVSS
notes: KD005 humanized variant
B24: KD049 (antibody, V domains shown)
VH: B23 VH with I12V, L45P, A60P, L115Q
notes: KD005 humanized variant
B25: KD053 (antibody, V domains shown)
VH: B23 VH with L45P, A60P, E88D, V92L
notes: KD005 humanized variant
B26: KD050 (antibody, V domains shown)
VH: B23 VH with I12V, L45P, A60P, R86K, A87P, E88D, L115Q
notes: KD005 humanized variant
B27: KD062 (antibody, V domains shown)
VH: B23 VH with V92L
notes: KD005 humanized variant
B28: KD059 (antibody, V domains shown)
VH: B23 VH with L45P
notes: KD005 humanized variant
B29: KD061 (antibody, V domains shown)
VH: B23 VH with E88D
notes: KD005 humanized variant
B30: KD046 (antibody, V domains shown)
VH: B23 VH with Q5L, I12V, L45P, R94Y
notes: KD005 humanized variant
B31: KD045 (antibody, V domains shown)
VH: B23 VH with Q1E, Q5L, I12V
notes: KD005 humanized variant
B32: KD063 (antibody, V domains shown)
VH: B23 VH with Q13E, L115Q
notes: KD005 humanized variant
B33: KD058 (antibody, V domains shown)
VH: B23 VH with R94Y
notes: KD005 humanized variant
B34: KD044 (antibody, V domains shown)
VH: B23 VH with Q1E, Q5L, I12V, R94Y
notes: KD005 humanized variant
B35: KD064 (antibody, V domains shown)
VH: B23 VH with V37Y, L45R
notes: KD005 humanized variant with framework 2 changes
B36: KD047 (antibody, V domains shown)
VH: B23 VH with Q5L, I12V, L45P
notes: KD005 humanized variant
B37: KD051 (antibody, V domains shown)
VH: B23 VH with I12V, L45P, A60P, S74A, R86K, A87P, E88D, V92L, L115Q
notes: KD005 humanized variant
B38: KD043 (antibody, V domains shown)
VH: B23 VH with Q1E, Q5L, I12V, Y50A, R94Y
notes: KD005 humanized variant
B39: KD048 (antibody, V domains shown)
VH: B23 VH with I12V, L45P, A60P, R94Y, L115Q
notes: KD005 humanized variant
B40: KD060 (antibody, V domains shown)
VH: B23 VH with A60P
notes: KD005 humanized variant

The first experiment concerns the target T1, recombinant human TROP2 extracellular …. Put plainly: ELISA, coated rh TROP2. As for the experimental part: (§1) Human TROP2 recombinant proteins were coated on 96-well ELISA plates at the concentration of 1 μg/mL. Plates were covered with adhesive plate cover and stored at 4° C. overnight. The next day, plates were washed 3× with washing buffer (PBS with 0.1% Tween™ 20). Plates were blocked with 2% fat-free BSA in washing buffer for 1 hour at 37° C. During the incubation time, the TROP2 reference antibodies, as well as the humanized variants, were diluted in the blocking buffer to the indicated concentrations. […] After blocking, the blocking buffer was removed from the wells and 100 μL of anti-TROP2 sdAbs dilutions were transferred to the corresponding wells. Plates were covered with adhesive plates cover and incubated at 37° C. for 1 hour. During the primary antibody incubation, the secondary antibody (goat anti-human IgG, HRP conjugated) was diluted 1 in 5000 with the blocking buffer. Plates were washed 3× with blocking buffer, followed by secondary antibody incubation for another 1 hour at 37° C. After the secondary antibody incubation, plates were washed 3× with washing buffer and added with 100 μL of ELISA chemiluminescent substrate (Thermofisher). The luminescence signal was detected by SpectraMax i3x at […].
(In general: In an ELISA, binding on a coated surface is turned into a signal by an enzyme label.)
Regarding B1, the EC50 worked out at 0.12 nM. Consider B2, for which the EC50 worked out at 0.16 nM.

With B3, the EC50 is 0.1 nM. On the same count and under the same terms, the result for B4 reads 0.09 nM.

With B5, the EC50 came out at 0.07 nM. On to B6, for which the EC50 is 0.18 nM. With B7, the EC50 worked out at 0.15 nM. Same read-out and setting: the result for B8 reads 0.05 nM; that for B9, 0.13 nM; that for B10, 0.13 nM.

B11: the EC50 worked out at 0.08 nM. Same read-out and setting: the result for B12 reads 0.15 nM. Consider B13, for which the EC50 stood at 0.13 nM. Take B14: the EC50 amounted to 0.09 nM.

Take B15: the EC50 was 0.15 nM. On the same count and under the same terms, the result for B16 reads 0.11 nM. Same read-out and setting: for B17 the value was 0.14 nM; for B18, 0.12 nM; for B19, 0.07 nM. Regarding B20, the EC50 came to 0.26 nM. Still for that read-out and setting: for B21 the value was 4.3 nM; for B22, 0.11 nM.

The next experiment shares this target. Put plainly: ELISA, coated rh TROP2. This is another data set of the same source. As for the experimental part: as §1
B23: the EC50 is 0.07 nM and the “EC50% to KD005” value was 0.875 ratio to KD005.

Consider B24, for which the EC50 was found to be 0.14 nM and the “EC50% to KD005” value is 1.75 ratio to KD005. Taken in the same sequence, the figures for B25 were 0.1 nM and 1.25 ratio to KD005. The corresponding values for B26 are 0.1 nM and 1.25 ratio to KD005. As for B27, the EC50 was found to be 0.14 nM and the “EC50% to KD005” value was 1.75 ratio to KD005.

For B28, the EC50 worked out at 0.1 nM and the “EC50% to KD005” value was 1.25 ratio to KD005.

For B29, the concentration for a half-maximal effect (EC50) turned out to be 0.12 nM and the “EC50% to KD005” value is 1.5 ratio to KD005. On to B30, for which the EC50 was 0.08 nM and the “EC50% to KD005” value was 1 ratio to KD005.

As to B31, the EC50 amounted to 0.09 nM and the “EC50% to KD005” value is 1.12 ratio to KD005.

For the molecule B32, the EC50 turned out to be 0.12 nM and the “EC50% to KD005” value is 1.5 ratio to KD005.

For B33, the EC50 is 0.1 nM and the “EC50% to KD005” value is 1.25 ratio to KD005. Taken in the same sequence, the figures for B34 were 0.08 nM and 1 ratio to KD005. Taken in the same sequence, the figures for B35 were 0.14 nM and 1.75 ratio to KD005. In the case of B36, the half-maximal effective concentration (EC50) stood at 0.14 nM and the “EC50% to KD005” value was 1.75 ratio to KD005. The corresponding values for B37 are 0.12 nM and 1.5 ratio to KD005. Taken in the same sequence, the figures for B38 were 0.09 nM and 1.12 ratio to KD005. Taken in the same sequence, the figures for B39 were 0.11 nM and 1.38 ratio to KD005.

Turning to B40, the EC50 is 0.11 nM and the “EC50% to KD005” value is 1.38 ratio to KD005.

Another experiment shares this target. Put plainly: ELISA, coated rh TROP2, normalized to KD005.
Turning to B23, the “EC50 relative to KD005” value was 0.93 ratio to KD005. Still for that read-out and setting: for B26 the value was 1.12 ratio to KD005. For the molecule B30, the “EC50 relative to KD005” value was 0.9 ratio to KD005.

Take B31: the “EC50 relative to KD005” value is 1.01 ratio to KD005. Turning to B34, the “EC50 relative to KD005” value is 0.9 ratio to KD005.

As for B38, the “EC50 relative to KD005” value was 1.01 ratio to KD005.

The term EC50 denotes the concentration giving half of the maximal effect.
